From patent publication US20150232560A1 (Hoffmann-La Roche, published 2015)
Where “and” joins values, the source holds several entries; their conditions need not be identical. Identical values can stand only once.

Legend:
[1] = molecular target: T1, IGF-1R(1340-1366)[1346-pTyr]amid (phosphotyrosine at 1346; C-terminal amide); assay: SPR (BIAcore 3000), ss-FABs hybridized on biotinylated T40-Bi linker on SA chip, peptide in solution; T40-Bi linker (linker 10)
T1 construct: Used as the analyte free in solution; also called pIGF-1R peptide (free in solution); phosphorylated IGF-1R peptide
T1 peptide: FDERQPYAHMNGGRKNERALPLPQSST

[2] = molecular target: T1, IGF-1R(1340-1366)[1346-pTyr]amid; assay: SPR (BIAcore 3000, SA sensor, 25 C): ss-FABs hybridized on the surface-captured biotinylated T40-Bi ss-DNA linker; peptide as analyte in solution
Excerpt: (§1) FIG. 17 Schematic drawing of the BIAcore assay, presenting the complex s on the sensor surface. On Flow Cell 1 (=FC1) (not shown) amino-PEO-biotin was captured. On FC2, FC3 and FC4 bivalent binding agents with increasing linker length were immobilized. Analyte 1: IGF-1R-peptide containing the M-1.4.168 ss-FAB epitope (thin line)-the M-8.1.2 ss-FAB phospho-epitope is not present, because this peptide is not phosphorylated; analyte 2: pIGF-1R peptide containing the M-8.1.2 ss-FAB phospho-epitope (P) and the M-1.4.168 ss-FAB epitope (thin line). Analyte 3: pINR peptide, containing the cross reacting M-8.1.2 ss-FAB phospho-epitope, but not the epitope for M-1.4.168.
(§2) The dissociation was monitored at 50 μl/min for 5.3 min. The system was regenerated after each concentration step with a 12 sec pulse of 250 mM NaOH and was reloaded with ss-FAB ligand.

IGF-1R(1340-1366)amid [3] = molecular target: T2, IGF-1R(1340-1366)amid (C-terminal amide); assay: as above
T2 construct: Used as the analyte free in solution; also called IGF-1R peptide (free in solution); non-phosphorylated IGF-1R peptide
T2 peptide: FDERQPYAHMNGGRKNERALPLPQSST
Excerpt: as §1, §2

[4] = molecular target: T1, IGF-1R(1340-1366)[1346-pTyr]amid; assay: SPR (BIAcore 3000, SA sensor, 25 C): ss-FABs hybridized on the surface-captured biotinylated T0-Bi ss-DNA linker; peptide as analyte in solution
IGF-1R(1340-1366)amid [5] = molecular target: T2, IGF-1R(1340-1366)amid; assay: as above
[6] = molecular target: T1, IGF-1R(1340-1366)[1346-pTyr]amid; assay: SPR (BIAcore 3000), ss-FABs hybridized on biotinylated T0 linker on SA chip, peptide in solution; T0 linker (no spacer; linker 16 as printed)
[7] = molecular target: T3, INR(1355-1382)[1361-pTyr]amid (human, phosphotyrosine at 1361; C-terminal amide); assay: SPR (BIAcore 3000, SA sensor, 25 C): single ss-FAB hybridized on the surface-captured biotinylated T40-Bi ss-DNA linker; peptide as analyte in solution
T3 construct: Used as the analyte free in solution; also called pINR peptide; phosphorylated insulin receptor peptide (free in solution)
T3 peptide: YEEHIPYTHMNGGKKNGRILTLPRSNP

B1: T40 dual binding agent: ss-FAB 8.1.2 and ss-FAB 1.4.168 on the biotinylated T40-Bi 77-mer ss-DNA-Linker (linker 10) (bispecific antibody, V domains shown)
VH 1: QCDVKLVESGGGLVKPGGSLKLSCAASGFTFSDYPMSWVRQTPEKRLEWVATITTGGTYTYYPDSIKGRFTISRDNAKNTLYLQMGSLQSEDAAMYYCTRVKTDLWWGLAYWGQGTLVTVSA
VL 1: QLVLTQSSSASFSLGASAKLTCTLSSQHSTYTIEWYQQQPLKPPKYVMELKKDGSHTTGDGIPDRFSGSSSGADRYLSISNIQPEDESIYICGVGDTIKEQFVYVFGGGTKVTVLG
VH 2: EVQLQQSGPALVKPGASVKMSCKASGFTFTSYVIHWVKQKPGQGLEWIGYLNPYNDNTKYNEKFKGKATLTSDRSSSTVYMEFSSLTSEDSAVYFCARRGIYAYDHYFDYWGQGTSLTVSS
VL 2: QIVLTQSPAIMSASPGEKVTLTCSASSSVNYMYWYQQKPGSSPRLLIYDTSNLASGVPVRFSGSGSVTSYSLTISRMEAEDAATYYCQQWSTYPLTFGAGTKLELK
modifications: ss-DNA on a hinge cysteine
notes: Assembled on the SA chip on the biotinylated linker T20-(Biotin-dT)-T20; also called T40-bi complex
Which Kd [1] does the source give for B1 here?
Its Kd is 0.01 nM.

What about the Kd [2] of the same binder?
Its Kd is 0.0125 nM.

What about the Kd (IGF-1R(1340-1366)amid [3]) of the same binder?
Its Kd is 0.973 nM and 1 nM.

What about the t1/2 diss (IGF-1R(1340-1366)amid [3]) of the same binder?
The t1/2 diss was 4.3 min.

B2: T0 dual binding agent: ss-FAB 8.1.2 and ss-FAB 1.4.168 on the biotinylated T0-Bi 37-mer ss-DNA-Linker (linker 17) (bispecific antibody, V domains shown)
VH 1: QCDVKLVESGGGLVKPGGSLKLSCAASGFTFSDYPMSWVRQTPEKRLEWVATITTGGTYTYYPDSIKGRFTISRDNAKNTLYLQMGSLQSEDAAMYYCTRVKTDLWWGLAYWGQGTLVTVSA
VL 1: QLVLTQSSSASFSLGASAKLTCTLSSQHSTYTIEWYQQQPLKPPKYVMELKKDGSHTTGDGIPDRFSGSSSGADRYLSISNIQPEDESIYICGVGDTIKEQFVYVFGGGTKVTVLG
VH 2: EVQLQQSGPALVKPGASVKMSCKASGFTFTSYVIHWVKQKPGQGLEWIGYLNPYNDNTKYNEKFKGKATLTSDRSSSTVYMEFSSLTSEDSAVYFCARRGIYAYDHYFDYWGQGTSLTVSS
VL 2: QIVLTQSPAIMSASPGEKVTLTCSASSSVNYMYWYQQKPGSSPRLLIYDTSNLASGVPVRFSGSGSVTSYSLTISRMEAEDAATYYCQQWSTYPLTFGAGTKLELK
modifications: ss-DNA on a hinge cysteine
notes: The protein parts are the same in both cases
Which results are given for B2?
Kd [4]: 0.0344 nM; Kd (IGF-1R(1340-1366)amid [5]): 1.2 nM and 1 nM; t1/2 diss (IGF-1R(1340-1366)amid [5]): 5 min; Kd [6]: 0.03 nM

B3: ss-FAB' 1.4.168 (Fab, V domains shown)
VH: DVKLVESGGGLVKPGGSLKLSCAASGFTFSDYPMSWVRQTPEKRLEWVATITTGGTYTYYPDSIKGRFTISRDNAKNTLYLQMGSLQSEDAAMYYCTRVKTDLWWGLAYWGQGTLVTVSA
VL: QLVLTQSSSASFSLGASAKLTCTLSSQHSTYTIEWYQQQPLKPPKYVMELKKDGSHTTGDGIPDRFSGSSSGADRYLSISNIQPEDESIYICGVGDTIKEQFVYVFGGGTKVTVLG
modifications: 17mer ss-DNA comprising SEQ ID NO: 05 with fluorescein, coupled via maleimide to a cysteine of the FAB' hinge region
notes: FAB' made from the murine monoclonal antibody M-1.4.168 by pepsin cleavage and cysteamine reduction; the constant parts are not; also called ss-FAB 1.004.168; fluorescein-ss-FAB' 1.4.168
Does B3 bind [7]?
Result: no binding
